The series concerns the molecule itself. Nature of the series: SEC-MALS; ParB alone, no DNA; 9 or 80 uM ParB2; Superdex 200 in 50 mM Hepes-KOH, 150 mM KCl, 2.5 mM MgCl2, 2 mM beta-mercaptoethanol; monomer and dimer. For orientation: SEC sorts molecules by how far they enter the pores of the column.

B1: Bacillus subtilis ParB (natural protein, UniProt P26497 1-282, looked up)
chain: MAKGLGKGINALFNQVDLSEETVEEIKIADLRPNPYQPRKHFDDEALAELKESVLQHGILQPLIVRKSLKGYDIVAGERRFRAAKLAGLDTVPAIVRELSEALMREIALLENLQREDLSPLEEAQAYDSLLKHLDLTQEQLAKRLGKSRPHIANHLRLLTLPENIQQLIAEGTLSMGHGRTLLGLKNKNKLEPLVQKVIAEQLNVRQLEQLIQQLNQNVPRETKKKEPVKDAVLKERESYLQNYFGTTVNIKRQKKKGKIEIEFFSNEDLDRILELLSERES
notes: ParB (Spo0J) of Bacillus subtilis 168; the parB gene was amplified from genomic DNA and cloned into pET28a(+); native (untagged) protein; intact monomer has a theoretical weight of 32.2 kDa; Untagged; also called Spo0J; ParB2 (the dimer); source: E. coli BL21 (DE3), pET28a-ParB, purified (ammonium sulphate cuts, HiTrap Heparin, Mono S; some preparations also Superdex S75)
A word on the stoichiometry N: it is a count of units in the complex or per binding partner. In the case of B1, the “stoichiometry N” value worked out at 2.

Values taken from PMC4333373, “Specific and non-specific interactions of ParB with DNA: implications for chromosome segregation” (Nucleic Acids Research, 2015).
